Reference: patent US20240301086A1 (APTEVO RESEARCH AND DEVELOPMENT, published 2024)

T1: mIgG Fc-cyno PSMA ECD (cynomolgus monkey)
T1 construct: Called PSMA dimer in the SPR method; also called mFc-Cyno PSMA ECD; murine Fc-tagged cyno PSMA ECD
T1 chain: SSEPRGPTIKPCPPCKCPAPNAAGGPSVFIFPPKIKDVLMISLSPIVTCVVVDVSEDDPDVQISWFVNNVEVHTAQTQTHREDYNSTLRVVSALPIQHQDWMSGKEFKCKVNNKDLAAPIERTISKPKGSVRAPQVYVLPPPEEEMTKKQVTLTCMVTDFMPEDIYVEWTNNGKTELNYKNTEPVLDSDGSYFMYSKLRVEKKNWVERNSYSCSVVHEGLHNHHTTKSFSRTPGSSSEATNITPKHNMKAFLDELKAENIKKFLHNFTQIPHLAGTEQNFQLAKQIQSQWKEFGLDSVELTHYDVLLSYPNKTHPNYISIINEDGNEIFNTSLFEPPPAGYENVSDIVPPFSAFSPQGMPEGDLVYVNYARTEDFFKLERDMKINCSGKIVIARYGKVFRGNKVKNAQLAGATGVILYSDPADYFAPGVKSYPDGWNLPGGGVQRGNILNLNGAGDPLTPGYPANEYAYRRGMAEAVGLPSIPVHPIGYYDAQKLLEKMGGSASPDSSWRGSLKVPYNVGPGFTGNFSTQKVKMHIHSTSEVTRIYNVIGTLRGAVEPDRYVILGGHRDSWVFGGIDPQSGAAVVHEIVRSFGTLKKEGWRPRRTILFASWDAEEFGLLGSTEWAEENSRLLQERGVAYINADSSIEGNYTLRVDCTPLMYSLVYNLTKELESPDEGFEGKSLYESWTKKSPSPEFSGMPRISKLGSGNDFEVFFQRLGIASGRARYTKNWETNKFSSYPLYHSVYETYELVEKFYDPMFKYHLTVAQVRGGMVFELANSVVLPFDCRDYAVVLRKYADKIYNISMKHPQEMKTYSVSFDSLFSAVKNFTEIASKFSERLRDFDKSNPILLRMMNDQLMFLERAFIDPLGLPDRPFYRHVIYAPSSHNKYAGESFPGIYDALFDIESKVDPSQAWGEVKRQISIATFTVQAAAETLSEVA


Key:
[1] = target: T2, human CD3ε in the TCR/CD3 complex on Jurkat cells (human, UniProt P07766 23-207); experiment: flow cytometry on Jurkat cells, PE goat anti-human IgG Fc secondary, MFI (median)
T2 construct: whole, on cells; On the cells it stands in the whole TCR/CD3 complex; also called CD3 (+) cells; CD3-expressing Jurkat cells

[2] = target: T2, human CD3ε in the TCR/CD3 complex on …; experiment: flow cytometry, Jurkat cells (approximate calculation)
Description: Jurkat and C4-2B cells were labelled at approximately 100,000 cells per well, in 96-well plates, with serial dilutions of bispecific constructs ranging in concentration from of 0.1 to 300 nM, for 30 min on ice. Primary label was followed by washes and incubation with PE-labeled minimum cross species reactive secondary antibody, goat anti-human IgG Fcγ, F(ab′)2 (Jackson Laboratory) for 30 minutes on ice. Washes and incubation were done in staining buffer (PBS with 0.2% BSA and 2 mM EDTA). Cells were collected using an BD™ LSRII or a BD FACSymphony™ flow cytometer (BD Biosciences) and analyzed by FlowJo flow cytometry analysis software. Median fluorescence intensity (MFI) of bound molecules on cells was determined after exclusion of doublets. Results were plotted and nonlinear regression analysis to determine EC50 values was performed using GraphPad Prism 7® graphing and statistics software.
On Jurkat cells (FIG. 11B), a range of binding potencies was observed. […] Swapping the orientation of the CD3-binding domain from VH-VL (PSMA01071) to VL-VH (PSMA01086) further reduced binding to CD3 in the C-terminus. The maximum CD3-binding signal differed between the constructs with N-terminal CD3-binding domain constructs showing the highest maximum binding. However, potency (EC50) and not maximum binding correlated with function, as will be shown in the next example.

[3] = target: T2, human CD3ε in the TCR/CD3 complex on …; experiment: cell-based or functional assay
[4] = target: T3, Full-length Human PSMA (TSC435), on cells (human, UniProt Q04609 1-750); experiment: flow cytometry on C4-2B cells, PE goat anti-human IgG Fc secondary, MFI (median)
T3 construct: also called CHOK1SV/huPSMA; PSMA on C4-2B, 22RV1, LNCaP, MDA-PCa-2b cells

mIgG Fc-cyno PSMA ECD = target: T1, mIgG Fc-cyno PSMA ECD; experiment: SPR (Biacore T200), bispecific amine-coupled, mFc-PSMA dimer 1-81 nM as analyte, 1:1 fit
Description: (§1) SPR studies were performed on a subset of bispecific constructs binding to Human and cynomolgus primate PSMA ectodomain (ECD) fused to the c-terminus of a murine IgG1 Fc region. These experiments were conducted at 25° C. in dPBS (Gibco, 14040-133) with 0.2% BSA buffer on a Biacore T200 system. Bispecific constructs were immobilized at a density of ˜2,000-4,000 response units (RU) onto individual flow cells of a CM5 research-grade sensor chip (GE) by standard amine coupling chemistry, leaving one flow cell surface unmodified as the reference. Using a multi-cycle kinetics mode, a buffer blank and […] different concentrations of the PSMA dimer ranging from 1 nM to 81 nM in dPBS with 0.2% BSA were sequentially injected through each flow cell at 30 μL/min for 300 seconds followed by a 600 second dissociation phase. Regeneration was achieved by injection of 10 mM glycine pH 2.0 at a flow rate of 30 μL/min for 40 seconds followed by dPBS with 0.2% BSA buffer stabilization for 1 min.
(§2) Sensorgrams obtained from kinetic SPR measurements were analyzed by the double subtraction method. The signal from the reference flow cell was subtracted from the analyte binding response obtained from flow cells with captured ligands. The buffer blank response was then subtracted from analyte binding responses and the final double-referenced data were analyzed with Biacore T200 Evaluation software (2.0, GE), globally fitting data to derive kinetic parameters. All sensorgrams were fitted using a simple one-to-one binding model.

mIgG Fc-human PSMA ECD = target: T4, mIgG Fc-human PSMA ECD (human); experiment: as above
T4 construct: Called PSMA dimer in the SPR method; also called mFc-Hu PSMA ECD; murine Fc-tagged human PSMA ECD
Description: as §1, §2

[5] = target: T5, Human PSMA ECD-AFH (TSC033), recombinant dimeric PSMA ECD (human, UniProt Q04609 44-750); experiment: SPR (Biacore T200), human PSMA dimer ECD 10X His (TSC033), 1:1 fit
T5 construct: SEC-purified dimer; also called HuPSMA-AFH; Avi-His-Human PSMA ECD

[6] = target: T2, human CD3ε in the TCR/CD3 complex on …; experiment: flow cytometry on Jurkat cells, MFI (median)

T2 sequence (P07766 23-207, one chain of several): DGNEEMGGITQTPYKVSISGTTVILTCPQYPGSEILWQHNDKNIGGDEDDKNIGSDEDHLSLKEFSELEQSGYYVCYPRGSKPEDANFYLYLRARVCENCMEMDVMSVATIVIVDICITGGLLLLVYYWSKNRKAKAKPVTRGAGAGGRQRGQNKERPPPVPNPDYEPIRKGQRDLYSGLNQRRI
T3 sequence (Q04609 whole entry): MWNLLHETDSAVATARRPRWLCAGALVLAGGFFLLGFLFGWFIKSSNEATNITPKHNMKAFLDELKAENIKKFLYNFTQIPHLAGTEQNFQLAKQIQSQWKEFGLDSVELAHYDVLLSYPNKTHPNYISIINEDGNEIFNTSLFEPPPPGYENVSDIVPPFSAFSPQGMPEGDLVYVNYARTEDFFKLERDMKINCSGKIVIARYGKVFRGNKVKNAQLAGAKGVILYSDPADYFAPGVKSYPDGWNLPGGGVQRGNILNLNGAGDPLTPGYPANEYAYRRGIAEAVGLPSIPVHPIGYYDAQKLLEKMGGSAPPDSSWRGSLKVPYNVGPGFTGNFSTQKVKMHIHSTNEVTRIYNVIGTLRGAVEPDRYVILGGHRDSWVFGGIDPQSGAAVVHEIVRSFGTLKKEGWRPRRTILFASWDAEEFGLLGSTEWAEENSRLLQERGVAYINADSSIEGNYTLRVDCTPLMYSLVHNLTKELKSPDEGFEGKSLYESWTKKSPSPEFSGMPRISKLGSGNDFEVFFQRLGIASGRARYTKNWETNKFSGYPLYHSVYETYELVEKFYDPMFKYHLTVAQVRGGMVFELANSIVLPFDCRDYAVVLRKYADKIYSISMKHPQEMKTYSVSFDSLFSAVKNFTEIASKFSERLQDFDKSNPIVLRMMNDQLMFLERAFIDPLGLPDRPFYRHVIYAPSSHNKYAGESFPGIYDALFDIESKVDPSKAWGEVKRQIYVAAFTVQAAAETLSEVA
T5 sequence (Q04609 other isoform, or with tags, fused parts or gaps): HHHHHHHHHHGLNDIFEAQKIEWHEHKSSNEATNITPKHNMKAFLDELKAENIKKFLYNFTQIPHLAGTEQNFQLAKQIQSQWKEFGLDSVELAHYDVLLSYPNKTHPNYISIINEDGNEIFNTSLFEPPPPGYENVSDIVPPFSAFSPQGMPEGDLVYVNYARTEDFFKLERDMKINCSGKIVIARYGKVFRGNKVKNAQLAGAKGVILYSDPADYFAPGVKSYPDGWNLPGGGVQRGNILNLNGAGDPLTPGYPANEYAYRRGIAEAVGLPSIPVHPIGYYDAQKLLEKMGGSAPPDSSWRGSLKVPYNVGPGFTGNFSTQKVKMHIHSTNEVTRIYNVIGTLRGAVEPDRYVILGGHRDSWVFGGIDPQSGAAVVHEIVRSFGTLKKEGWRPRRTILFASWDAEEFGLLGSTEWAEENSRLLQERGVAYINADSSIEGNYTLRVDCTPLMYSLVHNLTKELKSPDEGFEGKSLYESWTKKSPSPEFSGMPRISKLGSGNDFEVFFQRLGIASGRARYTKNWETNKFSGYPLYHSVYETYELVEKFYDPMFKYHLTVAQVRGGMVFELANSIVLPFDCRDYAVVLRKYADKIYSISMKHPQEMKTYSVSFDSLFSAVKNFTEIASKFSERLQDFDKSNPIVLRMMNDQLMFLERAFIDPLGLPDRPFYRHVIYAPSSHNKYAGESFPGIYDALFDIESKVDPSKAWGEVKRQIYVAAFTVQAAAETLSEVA

Binder	EC50 [1] [nM]	fold reduction in binding potency against PSMA01072 [2] [fold]	cytotoxic activity [3] [fold]	fold decrease in T-cell activation and proliferation [3] [fold]	EC50 [4] [nM]	Kd (mIgG Fc-cyno PSMA ECD) [nM]	Kd (mIgG Fc-human PSMA ECD) [nM]	Kd [5] [nM]	binding result [6]
PSMA01071 Anti PSMA scFv x Fc; Anti PSMA scFv x Fc x Anti CD3 scFv (bispecific antibody) chain 1: QVQLVQSGAEVKKPGASVKVSCKASGYTFTDYYMHWVRQAPGQGLEWMGYFNPYNDYTRYAQKFQGRVTMTRDTSTSTVYMELSSLRSEDTAVYYCARSDGYYDAMDYWGQGTTVTVSSGGGGSGGGGSGGGGSGGGGSDIQMTQSPSSLSASVGDRVTITCRASKSISKYLAWYQQKPGKAPKLLIHSGSSLESGVPSRFSGSGSGTEFTLTISSLQPDDFATYYCQQHIEYPWTFGQGTKVEIKEPKSSDKTHTCPPCPAPPAAAPSVFLFPPKPKDTLMISRTPEVTCVVVDVSHEDPEVKFNWYVDGVEVHNAKTKPREEQYNSTYRVVSVLTVLHQDWLNGKEYKCAVSNKALPAPIEKTISKAKGQPREPQVYTLPPSRDELTKNQVSLWCLVKGFYPSDIAVEWESNGQPENNYKTTPPVLDSDGSFFLYSKLTVDKSRWQQGNVFSCSVMHEALHNHYTQKSLSLSPG chain 2: QVQLVQSGAEVKKPGASVKVSCKASGYTFTDYYMHWVRQAPGQGLEWMGYFNPYNDYTRYAQKFQGRVTMTRDTSTSTVYMELSSLRSEDTAVYYCARSDGYYDAMDYWGQGTTVTVSSGGGGSGGGGSGGGGSGGGGSDIQMTQSPSSLSASVGDRVTITCRASKSISKYLAWYQQKPGKAPKLLIHSGSSLESGVPSRFSGSGSGTEFTLTISSLQPDDFATYYCQQHIEYPWTFGQGTKVEIKEPKSSDKTHTCPPCPAPPAAAPSVFLFPPKPKDTLMISRTPEVTCVVVDVSHEDPEVKFNWYVDGVEVHNAKTKPREEQYNSTYRVVSVLTVLHQDWLNGKEYKCAVSNKALPAPIEKTISKAKGQPREPQVYTLPPSRDELTKNQVSLSCAVKGFYPSDIAVEWESNGQPENNYKTTPPVLDSDGSFFLVSKLTVDKSRWQQGNVFSCSVMHEALHNRFTQKSLSLSPGGGGSPSQVQLVQSGAEVKKPGASVKVSCKASGYTFTRSTMHWVRQAPGQGLEWIGYINPSSAYTNYAQKFQGRVTLTADKSTSTAYMELSSLRSEDTAVYYCASPQVHYDYNGFPYWGQGTLVTVSSGGGGSGGGGSGGGGSGGGGSDIQMTQSPSSLSASVGDRVTITCRASSSVSYMNWYQQKPGKAPKRWIYDSSKLASGVPSRFSGSGSGTDFTLTISSLQPEDFATYYCQQWSRNPPTFGQGTKVEIKRS	> 204	~200	~10	~3	1				
PSMA01116 Anti-PSMA scFv x Fc x linker x Anti CD3 scFv; Anti PSMA scFv x Fc (bispecific antibody, Heterodimer, bivalent for PSMA and monovalent for CD3; also called PSM01116) chain 1: QVQLVQSGAEVKKPGASVKVSCKASGYTFTDYYMHWVRQAPGQGLEWMGYFNPYNDYTRYAQKFQGRVTMTRDTSTSTVYMELSSLRSEDTAVYYCARSDGYYDAMDYWGQGTTVTVSSGGGGSGGGGSGGGGSGGGGSDIQMTQSPSSLSASVGDRVTITCRASKSISKYLAWYQQKPGKAPKLLIHSGSSLESGVPSRFSGSGSGTEFTLTISSLQPDDFATYYCQQHIEYPWTFGQGTKVEIKEPKSSDKTHTCPPCPAPPAAAPSVFLFPPKPKDTLMISRTPEVTCVVVDVSHEDPEVKFNWYVDGVEVHNAKTKPREEQYNSTYRVVSVLTVLHQDWLNGKEYKCAVSNKALPAPIEKTISKAKGQPREPQVYTLPPSRDELTKNQVSLWCLVKGFYPSDIAVEWESNGQPENNYKTTPPVLDSDGSFFLYSKLTVDKSRWQQGNVFSCSVMHEALHNHYTQKSLSLSPGGGGSPSQVQLVQSGAEVKKPGASVKVSCKASGYTFTRSTMHWVRQAPGQGLEWIGYINPSSAYTNYAQKFQGRVTLTADKSTSTAYMELSSLRSEDTAVYYCASPQVHYDYNGFPYWGQGTLVTVSSGGGGSGGGGSGGGGSGGGGSDIQMTQSPSSLSASVGDRVTITCRASSSVSYMNWYQQKPGKAPKRWIYDSSKLASGVPSRFSGSGSGTDFTLTISSLQPEDFATYYCQQWSRNPPTFGQGTKVEIK chain 2: QVQLVQSGAEVKKPGASVKVSCKASGYTFTDYYMHWVRQAPGQGLEWMGYFNPYNDYTRYAQKFQGRVTMTRDTSTSTVYMELSSLRSEDTAVYYCARSDGYYDAMDYWGQGTTVTVSSGGGGSGGGGSGGGGSGGGGSDIQMTQSPSSLSASVGDRVTITCRASKSISKYLAWYQQKPGKAPKLLIHSGSSLESGVPSRFSGSGSGTEFTLTISSLQPDDFATYYCQQHIEYPWTFGQGTKVEIKEPKSSDKTHTCPPCPAPPAAAPSVFLFPPKPKDTLMISRTPEVTCVVVDVSHEDPEVKFNWYVDGVEVHNAKTKPREEQYNSTYRVVSVLTVLHQDWLNGKEYKCAVSNKALPAPIEKTISKAKGQPREPQVYTLPPSRDELTKNQVSLSCAVKGFYPSDIAVEWESNGQPENNYKTTPPVLDSDGSFFLVSKLTVDKSRWQQGNVFSCSVMHEALHNHYTQKSLSLSPG						6.2	4.1	5.2	binds
